Reference: FireProtDB (doi:10.1111/j.1432-1033.1996.00516.x)

B1: Guanyl-specific ribonuclease T1, P00651 (parent)
chain: MMYSKLLTLTTLLLPTALALPSLVERACDYTCGSNCYSSSDVSTAQAAGYQLHEDGETVGSNSYPHKYNNYEGFDFSVSSPYYEWPILSSGDVYSGGSPGADRVVFNENNQLAGVITHTGASGNNFVECT

Variants of: B1
Settings: Aspergillus oryzae (strain ATCC 42149 / RIB 40); pH 5; 10 °C; GdnHCl; Fluorescence; Sodium acetate 0.1 M; reversible: yes; structure 1RN1; whole UniProt chain shown

| Variant | ddG of mutation (higher = less stable) [kcal/mol] | denaturant m value [kcal/mol/M] | denaturant midpoint (higher = more stable) [M] |
| --- | --- | --- | --- |
| MMYSKLLTLTTLLLPTALALPSLVERACDYTCGSNCYSSSDVSTAQAAGYQLHEDGETVGSNSYPHKYNNYEGFDFSVSSPYYEWPILSSGDVYSGGSVGADRVVFNENNQLAGVITHTGASGNNFVECT [P99V] | -1.53 | 3.01 | 3.43 |

Same assay, conditions: Aspergillus oryzae (strain ATCC 42149 / RIB 40); pH 8; 10 °C; GdnHCl; Fluorescence; PIPES 0.1 M; reversible: yes; structure 1RN1; whole UniProt chain shown

| Variant | ddG of mutation (higher = less stable) [kcal/mol] | denaturant m value [kcal/mol/M] | denaturant midpoint (higher = more stable) [M] |
| --- | --- | --- | --- |
| MMYSKLLTLTTLLLPTALALPSLVERACDYTCGSNCYSSSDVSTAQAAGYQLHEDGETVGSNSYPHKYNNYEGFDFSVSSPYYEWPILSSGDVYSGGSVGADRVVFNENNQLAGVITHTGASGNNFVECT [P99V] | -2.44 | 3.18 | 2.44 |

Same assay, conditions: Aspergillus oryzae (strain ATCC 42149 / RIB 40); pH 8; 25 °C; GdnHCl; Fluorescence; PIPES 0.1 M; reversible: yes; structure 1RN1; whole UniProt chain shown

| Variant | ddG of mutation (higher = less stable) [kcal/mol] | denaturant m value [kcal/mol/M] | denaturant midpoint (higher = more stable) [M] |
| --- | --- | --- | --- |
| MMYSKLLTLTTLLLPTALALPSLVERACDYTCGSNCYSSSDVSTAQAAGYQLHEDGETVGSNSYPHKYNNYEGFDFSVSSPYYEWPILSSGDVYSGGSVGADRVVFNENNQLAGVITHTGASGNNFVECT [P99V] | -2.01 | 2.7 | 1.66 |
